The target in this experiment is recombinant CA/09 NA protein (baculovirus, with N-terminal His-tag, tetramerization domain and thrombin site) (human; influenza A virus …, UniProt P50552 336-380).
Sequence of recombinant CA/09 NA protein (baculovirus, with N-terminal His-tag, tetramerization domain and thrombin site) (P50552 336-380): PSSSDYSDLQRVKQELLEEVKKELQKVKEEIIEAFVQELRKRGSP

B1: mAb CD6 (whole IgG) (antibody, V domains shown)
VH: QVKLQESGGGLVQPKGSLKLSCAASGFTFNTYAMNWVRQAPGKGLEWVARIRSKSNNYATFYADSVKDRFTISRDDSQSMLYLQMHNLKTDDTAMYYCVRPSIYYYASGYLDVWGAGTTVTVSS
VL: QIVLSQSPAILSASPGEKVTMTCRTSSSVSYMHWYQQKPGSSPKPWIYATSNLASGVPFRFSGSGSGTSYSLTISRVEAEDAATYYCQQWNSNPPTFGGGTKLEIKR
B1: the Kd – broadly, a measure of binding affinity in units of concentration – is ~95 nM.
